The values below come from article PMC4586751.

Assay [1] concerns the target F-actin (polymerised chicken muscle G-actin) (chicken) (UniProt P68139). Put plainly: co-sedimentation.
Assay [2] deals with E-cad/α monomer (recombinant; entire E-cadherin cytoplasmic tail fused to αE-catenin) (mouse) (UniProt P09803). The experiment in a line: ITC.
In assay [3] the target is E-cadΔ70/α monomer (recombinant; E-cadherin cytoplasmic tail lacking the C-terminal 70 aa fused to αE-catenin) (mouse) (UniProt P09803). The experiment in a line: ITC.

As for “E-cadΔ70/α homodimer (recombinant) (from UniProt P09803 736-815) (complex)”, in assay [1], the equilibrium dissociation constant (Kd) was found to be 1600 nM.
For “β-catenin (full-length mouse, recombinant) (from UniProt Q02248 1-781) (natural protein)”, in assay [2], the dissociation constant Kd worked out at 74 nM and the dH was -58 kcal/mol. Besides, in assay [3], the Kd is 36.6 nM, the dH is -16.9 kcal/mol and the stoichiometry N came out at 1.
